In US20050164166A1 (US Dept. of Health and Human Services, published 2005):

Key:
Assay in all cases: cell-based or functional assay
Env 89.6 (clade B) = Env 89.6 (clade B) (HIV-1, UniProt Q73372 32-853)
Env BR019.4 (clade F/B) = Env BR019.4 (clade F/B) (HIV-1)
Env RW020.5 (clade A) = Env RW020.5 (clade A) (HIV-1)
Env US005.11 (clade B) = Env US005.11 (clade B) (HIV-1)
Env UG037.8 (clade A) = Env UG037.8 (clade A) (HIV-1)
Env BR025.9 (clade C) = Env BR025.9 (clade C) (HIV-1)
Env US715.6 (clade B) = Env US715.6 (clade B) (HIV-1)
Env TH022.4 (clade EA) = Env TH022.4 (clade EA) (HIV-1)
Env HT593.1 (clade B) = Env HT593.1 (clade B) (HIV-1)
Env NL4-3 (clade B) = Env NL4-3 (clade B) (HIV-1)
Env UG975.10 (clade G) = Env UG975.10 (clade G) (HIV-1)

B1: Fab X5 (Fab, V domains shown)
VH: VQLLEQSGAEVKKPGSSVQVSCKASGGTFSMYGFNWVRQAPGHGLEWMGGIIPIFGTSNYAQKFRGRVTFTADQATSTAYMELTNLRSDDTAVYYCARDFGPDWEDGDSYDGSGRGFFDFWGQGTLVTVSS
VL: ELVLTQSPGTLSLSAGERATLSCRASQSVSSGSLAWYQQKPGQAPRLLIYGASTRATGIPDRFSGSGSGTDFTLTIGRLEPEDLAVYYCQQYGTSPYTFGQGTKLEIKR
- % of fusion inhibition (cell-cell fusion assay, syncytia count, antibody at 50 ug/ml) (Env 89.6 (clade B)): 93%
- % of fusion inhibition (cell-cell fusion assay, syncytia count, antibody at 50 ug/ml) (Env BR019.4 (clade F/B)): 37%
- % of fusion inhibition (cell-cell fusion assay, syncytia count, antibody at 50 ug/ml) (Env RW020.5 (clade A)): 45%
- % of fusion inhibition (cell-cell fusion assay, syncytia count, antibody at 50 ug/ml) (Env US005.11 (clade B)): 72%
- % of fusion inhibition (cell-cell fusion assay, syncytia count, antibody at 50 ug/ml) (Env UG037.8 (clade A)): 34%
- % of fusion inhibition (cell-cell fusion assay, syncytia count, antibody at 50 ug/ml) (Env BR025.9 (clade C)): 71%
- % of fusion inhibition (cell-cell fusion assay, syncytia count, antibody at 50 ug/ml) (Env US715.6 (clade B)): 56%
- % of fusion inhibition (cell-cell fusion assay, syncytia count, antibody at 50 ug/ml) (Env TH022.4 (clade EA)): 43%
- % of fusion inhibition (cell-cell fusion assay, syncytia count, antibody at 50 ug/ml) (Env HT593.1 (clade B)): 27%
- % of fusion inhibition (cell-cell fusion assay, syncytia count, antibody at 50 ug/ml) (Env NL4-3 (clade B)): 83%
- % of fusion inhibition (cell-cell fusion assay, syncytia count, antibody at 50 ug/ml) (Env UG975.10 (clade G)): 19%

B2: soluble scFv m6 (scFv, not shown: small tags and cut ends)
scFv: VLTQSPGTLSLSAGERATLSCRASQSVSSGSLAWYQQKPGQAPRLLIYGASTRATGIPDRFSGSGSGTDFTLTIGRLEPEDLAVYYCQQYGTSPYTFGQGTKLEIKRTGGGGSSGGASGGGGSVRLLEQSGAEVKKPGSSVQVSCKASGGTFSMYGVNWVRQAPGHGLEWMGGIIPIFGTSNYAQKFRGRVTFTADQATSTAYMELTNLRSDDTAVYYCARDFGPDWEDGDSYDGSGRGFFDFWGQGTLVTVSS
- % of fusion inhibition (cell-cell fusion assay, syncytia count, antibody at 50 ug/ml) (Env 89.6 (clade B)): 98%
- % of fusion inhibition (cell-cell fusion assay, syncytia count, antibody at 50 ug/ml) (Env BR019.4 (clade F/B)): 37%
- % of fusion inhibition (cell-cell fusion assay, syncytia count, antibody at 50 ug/ml) (Env RW020.5 (clade A)): 56%
- % of fusion inhibition (cell-cell fusion assay, syncytia count, antibody at 50 ug/ml) (Env US005.11 (clade B)): 83%
- % of fusion inhibition (cell-cell fusion assay, syncytia count, antibody at 50 ug/ml) (Env UG037.8 (clade A)): 66%
- % of fusion inhibition (cell-cell fusion assay, syncytia count, antibody at 50 ug/ml) (Env BR025.9 (clade C)): 57%
- % of fusion inhibition (cell-cell fusion assay, syncytia count, antibody at 50 ug/ml) (Env US715.6 (clade B)): 27%
- % of fusion inhibition (cell-cell fusion assay, syncytia count, antibody at 50 ug/ml) (Env TH022.4 (clade EA)): 72%
- % of fusion inhibition (cell-cell fusion assay, syncytia count, antibody at 50 ug/ml) (Env HT593.1 (clade B)): 50%
- % of fusion inhibition (cell-cell fusion assay, syncytia count, antibody at 50 ug/ml) (Env NL4-3 (clade B)): 100%
- % of fusion inhibition (cell-cell fusion assay, syncytia count, antibody at 50 ug/ml) (Env UG975.10 (clade G)): 48%
